Assay results published in the DeepSol protein solubility set.

assay: soluble on expression in E. coli; label from the status in PepcDB or PDB records

| Sequence | soluble on expression in E. coli |
| --- | --- |
| MKKETKPRVVVIGGGTGLPVILKGLKKKDIHLTAIVTVADDGGSSGKIREQMDVLPPGDIRNVMLALSNVDPRVVDLFQYRFAVDGDLSGHVIGNLILTALSQLNDSYVDAINVLATVLKIRGKVIPATDQPLILNAEMEDGSIVHGESLIPLQGKHINRVYIEPENVKPYPTAVEAVKEADLIVIGPGSLYTSILPNLLLTELADEITASKAPKVYITNILTQIGETDFFSDADHIKVIHEHVGKSFIDKTLINTTTVPKELLFPEDVAQVEHNAKGMEELGVEAIYQDFLSTEDGLVRHAAEKVADALLAMLPNQTNEKELEHHHHHH | soluble |
| MKKFKNILFATQGLPGHSDALEQAIQLAYNNRGQLAGLIAFPAFPADLQRYQEPYEQSYLNTLMETVEACRSQHHIHKDEVPFPLMVEHSEQPAVAIIKSALNHHIDLLIKEAEPMTHSQQGFKALDMTLLRKCPCPVWLHR | not soluble |
| MKKFLTQVFTWWNGQTLGTRFHTWRKGERVGEDEFGNVYYQGGKDSEGRTRRWVIFNGYSEASTIPPGWHGWMHHRVDTPPSKEDYRPREWQKPHLQNLTGSPLAYRPKGSIALPGAQPAERPRVTGEYDAWTPGNLEHHHHHH | not soluble |
| MKKIAVFADVQNLYYTVRQAYGCHFNYAALWADISKRGEIVHAFAYAIDRGDSKQQQFQQILRNLGFTVRLKPYIQRSDGSAKGEWDVGITIDIMDFAPQVDEVVLASGDGDFDMLLDRVISKHGVEAVAYGVPGLTANSLIRAASRYVPIEGALL | soluble |
| MKKIKLGFAPTRRSIFSAPDAVKYRGLTAQRLKELGVDFVDITDINEEGLLYDDKDVDKIVEKFKKEGVDGLMLPHCNFGTEYVCARLAKKLDVPVLLWGPLDERPEPNGVRLRDTQCGLFATGKVLRRFQIPFTYLTNCRLNDPVFERGVKDFLAVCNVVKTFKNIRILQISTRPFDFWTTMCNEGELLEKFNIQLAPVPMTELTEEVKTVREDKEKMEQMIAYIKDTMVIKIKEEEVEMVAALALAMKSLVEKYGCQAAAIQCWNALQTEIGIMPCAANAILNEQGIPVVCETDIHGAVTALLAEAAGMDEKRGFFADWTIRHPDIENGELLQHCGPWPMSVAQEKPELTYPLAFEHPGSLTAEAKHGEVTLCRFDGDNGEYSLLLGNAKGVDGPKGMGTYLWVEVENIKRLEAKIVEGPYIHHCVGIHKNVVPVLYEACKYIGVKPDLYDPIEEDVKAYLRGE | not soluble |
| MKKILLLNGPNLNMLGKREPHIYGSQTLSDIEQHLQQSAQAQGYELDYFQANGEESLINRIHQAFQNTDFIIINPGAFTHTSVAIRDALLAVSIPFIEVHLSNVHAREPFRHHSYLSDVAKGVICGLGAKGYDYALDFAISELQKIQLGEMMNG | soluble |
| MKKLEIEFEQVVKQYKNTIYTVCFMFSKDSREVNDLFQDVLVNLWKGFDTFKGESNIGTWIWRVSLNTCISSDRKKKIVSVPLIMGIDLFEDRDEDTTQIKMLYNRISRLKHFDRAIVLLWLENFSYEEIAAIVGISVKNVSVRLFRIKEELKKMSNN | not soluble |
| MKKLMITQEAGVATVLIKNPPVNILTIDLINELNAFILSLKDDRETKVVVFKSFHEAFFIAHLDLNVINGTSGGQAASIEFNHMIANIKAMKQLSIAVVDGVARGGGNEFVMACDLAYGTENSAFAQPELYINIPTGGQGAVQFARRLGKGKALQALLTGADFTAQQAETLNIITQFVLKAELDVFLAQLLSVIVGWEIRDIVMYKEIIAASIKDEAVGTELELRYFLERAREEKTQTIIAAFLKH | soluble |
| MKKPFSKLFGLKNKDDIIGHIEEDRNSNVESIQIERIVPNRYQPRQVFEPNKIKELAESIHEHGLLQPIVVRPIEEDMFEIIAGERRFRAIQSLNLPQADVIIRDMDDEETAVVALIENIQRENLSVVEEAEAYKKLLEIGDTTQSELAKSLGKSQSFIANKLRLLKLAPKVLLRLREGKITERHARAVLSLSDSEQEALIEQVIAQKLNVKQTEDRVRQKTGPEKVKAQNLRFAQDVTQARDEVGKSIQAIQQTGLHVEHKDKDHEDYYEIKIRIYKR | not soluble |
| MKKPNHSGSGQIRIIGGQWRGRKLPVPDSPGLRPTTDRVRETLFNWLAPVIVDAQCLDCFAGSGALGLEALSRYAAGATLIEMDRAVSQQLIKNLATLKAGNARVVNSNAMSFLAQKGTPHNIVFVDPPFRRGLLEETINLLEDNGWLADEALIYVESEVENGLPTVPANWSLHREKVAGQVAYRLYQREAQGESDAD | soluble |
| MKKQNPWIYLNEEEKNQILNFSESYKKFISKFKTEREVTAYALDKAKKLGFINAEEKKNLMPGDKIFYTCREKSVAFAIIGKNPIEDGMNFIVSHTDSPRLDAKPSPISEENELTFIKTNYYGGIKKYQWLSTPLSIRGVVFLKNGEKVEINIGDNENDPVFVIPDILPHLDRKIQRNKKSDEIVEGENLKILIGSLPIETKEKNKVKLATLQLIKEKYKIEEEDFVSSEIEIVPAGTAKDVGFDKALIGAYGQDDKICVFTSLESIFDLEETPNKTAICFLVDKEEIGSTGSTGLDSRYLEYFVSDMIFKIKKSEYNNLHVQKALWNSKSISADVCAAINPLFSSVHDEQNAPQLGYGIPIMKYTGHGGKSMASDADAELVSYIRQLLNKNNIAWQVATLGKVEEGGGGTVAKFLAGYGIRTIDMGPAVISMHSPMEITSKFDLYNAYLAYKAFYRE | soluble |
| MKKTFNLVATAAAGIEAVVGKELRNLGLDCQVENGRVLFKGNIETIAKSNLWLRSADRIKIVVGEFPARTFEELFQGVYALDWENYLPLGCQFPVAKAKSVKSKLHNEPSIQGITKKAIVKKLQHYFHRPDSVPLPENGPEFKIEISLLKDQARVMIDTTGPSLFKRGYRTEKGGAPIKENMAAAIILLSNWFPDKPFVDPTCGSGTFCIEAAMIGMNIAPGFNRDFAFEEWPWVDEALVTRVRNEADEQADYDIQLDISGFDFDGRMVEIARKNAREVGLEDVVKLKQMRLQDFKTNKINGVLISNPPYGERLLDDKAVDILYNEMGETFAPLKTWSQFILTNDTDFEQKFGRKADKKRKLYNGSLKVDLYQFYGQRVKRVLR | soluble |
| MKKTLATLFLLTCLGSSSAYADNALILQTDFSLKDGAVSAMKGVAFGVDHNLKIFDLTHEIPPYNIWEGAYRLYQTASYWPQGSVFVSVVDPGVGTDRKSIVLKTKNGQYFVSPDNGTLTLVAESLGIESVREIDEKANRLKGSEKSYTFHGRDVYAYTGARLASGAITFEQVGPELPAKVVELSYQKAKATKGEVKGNIPILDIQYGNVWSNISDELLNQAGIKLNDTLCVTISEGSRQKYAGKMPYVASFGDVPEGQPMVYLNSLLNVSVALNMDNFAQKHQVASGADWNIDVKKCDK | not soluble |
| MKKTYYLFNPGELSRKDNTIRFVPIQEGENGQEQAGQARYIPVEGISDFYVFGSLRANSSLYNFLGSNDIAVHFFDYYENYTGSFMPRDFLLSGKMLLAQASAYKNKKKRLFLARKFIEGAASNMQKNLAYYNNRGKDMQPMMELIDKYSLRLKETTTIEALMGIEGNIRQAYYDAFNLIIDPFEMGVRSKQPPQNEVNALISFGNMMCYTLCLKAIHQSQLNPTISFLHTPGERRYSLCLDISEVFKPILVDRTIFKVMNKRIIQAKHFDKQLNKCILNPSGKKLFVQAFEERLSETIRHRKLNRSVSFRHLVKLECYKIAKDILGIEEYQPFKMYW | not soluble |
| MKKVGEYFLDPNLDPGRDHILYKDDEHMVIYLGTQEGLEDVDVNSYLIVSKGKGILIDPGGYKIFTKVLANVSKYIDPKDIEYIYMCHQDPDVAGSIPLWREISNAKIIIHWLWVRFLPHFGFENIRGYAHELQDEGETLNFGATTLEFIPAHFLHSPGHFTVYDRRSKFLFSGDIGIAFPDERYLVVENMERHIQYMRPLHERLMASNKALRLWVNKVRGLDIEAILPQHGAIIPRRFVPRFLDWLENLKVGVDLMR | soluble |
| MKKVVAVVKLQLPAGKATPAPPVGPALGQHGANIMEFVKAFNAATANMGDAIVPVEITIYADRSFTFVTKTPPASYLIRKAAGLEKGAHKPGREKVGRITWEQVLEIAKQKMPDLNTTDLEAAARMIAGSARSMGVEVVGAPEVKDA | soluble |
| MKKVYIKTFGCQMNEYDSDKMADVLGSAEGMVKTDNPEEADVILFNTCSVREKAQEKVFSDLGRIRPLKEANPDLIIGVGGCVASQEGDAIVKRAPFVDVVFGPQTLHRLPDLIESRKQSGRSQVDISFPEIEKLEHHHHHH | not soluble |
| MKKYILSLDQGTTSSRAILFNKKGEIVHSAQKEFTQHFPKPGWVEHNAQEIWGSILAVIATCLSEADVKPEQIAGIGITNQRETAVVWDKTTGKPIYNAIVWQSRQTAEICDELKEKGYSEMVREKTGLLIDAYFSGTKVKWILDNVEGAREKAENGDLLFGTIDTWLVWKLSGGKAHVTDYSNASRTLMFNIHDLQWDDELLDMLTVPKSMLPEVRPSSEVYGETIDYHFFGQNVPIAGVAGDQQAALFGQACFGEGMAKNTYGTGCFMLMNTGEKAVASEHGLLTTIAWGIDGKVNYALEGSIFVAGSAIQWLRDGMRMFKDASESEVYASRVESTDGVYVVPAFVGLGTPYWDSEVRGAMFGVTRGTTKEHFIRATLESLAYQIKDVLCAMEADSGIELKTLRVDGGAVKNNFLMKFQSDILDVPVERPVINETTALGAAYLAGLAVGYWKNQDEIKEQWHMDKRFEPTMEAETSEELYAGWKKAIEATKAFK | not soluble |
| MKKYTEMTKDELMQEKTALEAEYEKIKNLGLSLDMSRGKPGADQLDLSLPMLDVLKSDSDMKSESGLDVRNYACLDGIPEAKALIAGMVGAKPEQAIVYGNSSLNIMYDQVARAFIFGLCGNTPWCKLDKVKFLCPVPGYDRHFAITEEFGVEMINIPMTEDGPDMDMVEKYVNNDASVKGIWCVPKYSNPQGVVYSDETVERFAKLKPAADDFRIFWDNAYTVHHLYDDKQAEIPNILELCEKEGNPDMVFEFCSTSKVTFPGAGVAGICTSEKNREDIKKRLTIQTIGHDKINQLRHARFFKDVDGIKAHMAKHAALIRPKFELVENILTDEIASRGIGTWVKPLGGYFFGFEALSGCAKEIVAKCKEAGVTMTGAGSPFPYKKDPDDSVIRIAPTYPSLDELKKAAEVFVIVTRLVSVNKLLEA | not soluble |
| MKLAKRVAALTPSATLEITAKAQALKAEGHDVIGLGAGEPDFNTPEHIMDAAHKAMLEGHTKYTPTGGLQALKQEIVKKFTRDQGIAYDPSEIIVCNGAKHALYTLFQVLLDEGDEVIIPTPYWVSYPEQVKLAGGKPVYVEGLEGNEYKITAEQLREAITEKTKAVIINSPSNPTGMIYSKEELQQLGEVCLEHDILIVSDEIYEKLIYGGAEYTSIAQLSNALKEQTLIINGVSKSHSMTGWRIGYAAGNKQLIKAMTNLASHSTSNPTSIAQYGAIAAYAGSQEPVETMRQAFEERLNIIYDKLIQIPGFTCIKPQGAFYLFPNVKEAVALSGYETVDEWAKALLEEEKVALVPGTGFGAPNNVRLSYATSLEQVEKALERIHTFMKSKVQA | not soluble |
| MKLAVITDSTATLPTDLKQDKAIFSLDIPVIIDDETYFEGRNLSIDDFYQKMADSQNLPKTSQPSLSELDNLLGLLSSKGYTHVIGLFLAGGISGFWQNIQFLAEEHPEIEMAFPDSKITSAPLGSMVKNVLDWSRQGMTFQAILNKLQEQIDGTTAFIMVDDLNHLVKGGRLSNGSALLGNLLSIKPILRFDEEGKIVVYEKVRTEKKAMKRLVEILNDLIADGQYNVFIIHSKAQDKADYLKRLLQDSGYQYDIEEVHFGAVIATHLGEGAIAFGVTPRL | not soluble |
| MKLINTTWTHQELVNNQLDNTDAFLVETYSAGNTDVVFTQAPKHYELLISNKHRAVKDNELEVIREFFLKRKIDKDIVLMDKLRTVHTDKLIEISFPTTV | soluble |
